Legend:
[1] = target: human EGF-r expressed on the surface of human carcinoma cells (A431, SW948) (human) (UniProt P00533); assay: inhibition of [125I]EGF (0.1 nM) binding to A431 cells
[2] = target: human EGF-r expressed on the surface of human carcinoma cells (A431, SW948) (human) (UniProt P00533); assay: cell-based or functional assay
[3] = target: Soluble EGF-r purified from A431 cell membranes (Sigma, E-3641) (human) (UniProt P00533); assay: BIAcore, solid phase, antigen immobilised at 228 RU
[4] = target: human EGF-r expressed on the surface of human carcinoma cells (A431, SW948) (human) (UniProt P00533); assay: inhibition of [125I]EGF binding to SW948 cells

Substance	IC50 [1]	IC50 of inhibition of A431 cell proliferation [2]	inhibition of EGF-induced tyrosine phosphorylation of EGFr in A431 cells [2]	inhibition of SW948 cell growth in vitro [2]	Kd [3]	IC50 [4]
E7.6.3 antibody (secreted by the hybridoma E7.6.3)	3 nM	0.125 nM	133 nM	100%	0.057 nM	0.9 nM
murine monoclonal antibody 528	15.2 nM	0.66 nM				

Source: patent publication US20020173629A1
